Earlier results, collected in article PMC4703387, “Identification of the Calmodulin-Binding Domains of Fas Death Receptor” (PLoS ONE, 2016).

Target: T1, Ca^2+/CaM (Homo sapiens, UniProt P0DP23)
T1 construct: made in house
Details: ref [32]
Excerpt: We have also shown that both lobes of Ca^2+/CaM are important for FasDD binding. […] Our attempt to identify the interaction regions by ... || To identify the Ca^2+/CaM-binding regions in large proteins is not a simple task. To predict the Ca^2+/CaM-binding site, a web-based tool is often used to provide favorable scores based on multiple criteria including hydropathy, α-helical propensity, hydrophobic residue content, residue charge, residue weight, helical class and occurrence of particular residues.[39] However, this method can still provide biased results.

B1: FasDD: intracellular death domain of Fas (protein)
chain: SKYITTIAGVMTLSQVKGFVRKNGVNEAKIDEIKNDNVQDTAEQKVQLLRNWHQLHGKKEAYDTLIKDLKKANLCTLAEKIQTII
stoichiometry of Ca^2+/CaM–FasDD complex: two Ca^2+/CaM molecules binding simultaneously to FasDD
